Assay results published in paper PMC4067995.

Biological target: V1 (A3B3DF), the soluble subcomplex of TtATPase without peripheral stalks (Thermus thermophilus strain HB8) (UniProt Q56403)
Assay: native MS

V1 (A3B3DF), the soluble subcomplex of TtATPase without peripheral stalks (Thermus thermophilus strain HB8), sequence (Q56403 whole entry, chain 1 of 4): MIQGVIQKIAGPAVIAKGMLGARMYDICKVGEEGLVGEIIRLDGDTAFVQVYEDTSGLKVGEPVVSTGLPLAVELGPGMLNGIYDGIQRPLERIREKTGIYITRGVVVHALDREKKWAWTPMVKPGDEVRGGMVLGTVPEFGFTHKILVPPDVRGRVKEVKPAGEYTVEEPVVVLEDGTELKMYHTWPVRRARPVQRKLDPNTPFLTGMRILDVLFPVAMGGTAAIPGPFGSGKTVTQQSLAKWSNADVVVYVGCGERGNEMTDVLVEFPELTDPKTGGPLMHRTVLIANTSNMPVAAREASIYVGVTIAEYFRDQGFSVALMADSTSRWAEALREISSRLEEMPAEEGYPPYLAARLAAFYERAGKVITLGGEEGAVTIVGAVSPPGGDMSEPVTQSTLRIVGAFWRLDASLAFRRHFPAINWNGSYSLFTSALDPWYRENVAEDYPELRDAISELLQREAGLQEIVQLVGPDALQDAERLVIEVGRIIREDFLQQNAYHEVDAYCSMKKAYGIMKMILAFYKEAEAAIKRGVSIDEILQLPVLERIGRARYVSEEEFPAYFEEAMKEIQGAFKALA
V1 (A3B3DF), the soluble subcomplex of TtATPase without peripheral stalks (Thermus thermophilus strain HB8), sequence (Q56404 whole entry, chain 2 of 4, further chain): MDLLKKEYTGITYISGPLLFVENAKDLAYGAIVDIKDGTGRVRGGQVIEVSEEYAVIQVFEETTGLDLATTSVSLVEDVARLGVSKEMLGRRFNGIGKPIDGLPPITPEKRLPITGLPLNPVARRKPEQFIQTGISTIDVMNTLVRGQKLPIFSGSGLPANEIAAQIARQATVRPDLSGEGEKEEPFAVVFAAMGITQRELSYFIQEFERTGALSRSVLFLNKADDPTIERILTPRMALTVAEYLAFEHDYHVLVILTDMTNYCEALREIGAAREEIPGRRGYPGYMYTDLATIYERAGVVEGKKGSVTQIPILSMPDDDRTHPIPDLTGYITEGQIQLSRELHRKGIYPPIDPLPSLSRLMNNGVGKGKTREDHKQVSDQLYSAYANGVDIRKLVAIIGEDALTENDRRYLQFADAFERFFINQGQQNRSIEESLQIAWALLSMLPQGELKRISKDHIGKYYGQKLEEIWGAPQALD
V1 (A3B3DF), the soluble subcomplex of TtATPase without peripheral stalks (Thermus thermophilus strain HB8), sequence (O87880 whole entry, chain 3 of 4, further chain): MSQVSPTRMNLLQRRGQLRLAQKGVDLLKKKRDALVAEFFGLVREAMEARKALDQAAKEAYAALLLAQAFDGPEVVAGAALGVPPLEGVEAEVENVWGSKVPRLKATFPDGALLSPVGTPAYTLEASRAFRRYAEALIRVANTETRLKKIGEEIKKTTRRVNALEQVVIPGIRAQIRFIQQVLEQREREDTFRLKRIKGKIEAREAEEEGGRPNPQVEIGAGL
V1 (A3B3DF), the soluble subcomplex of TtATPase without peripheral stalks (Thermus thermophilus strain HB8), sequence (P74903 whole entry, chain 4 of 4, further chain): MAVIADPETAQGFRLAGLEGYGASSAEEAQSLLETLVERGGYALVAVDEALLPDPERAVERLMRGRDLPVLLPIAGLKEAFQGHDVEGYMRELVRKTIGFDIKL

peripheral EG stalk of TtATPase (from UniProt P74901 1-188) (complex)
stoichiometry N: 2
